What follows are binders tested against T1, His-tagged human TSLP antigen (huTSLP-his) (human) (assay: ELISA, coated huTSLP-his;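 further: binding of antibodies to plate-bound TSLP read as absorbance at 450 nm after TMB colour development, EC50 derived from binding curves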).
T1 construct: Secreted from HEK293E and purified on nickel; whole entry named; also called Human TSLP-his
Description: The plate was incubated at 4° C. overnight. After the liquid was discarded, 5% skim milk (skim milk powder from Brightdairy) blocking solution diluted with PBS was added at 200 μL/well, and the plate was incubated in an incubator at 37° C. for 2 h for blocking. After the blocking, the blocking solution was discarded, and the plate was washed 3 times with a PBST buffer (PBS containing 0.1% (v/v) tween-20, pH 7.4). […] After the incubation, the plate was washed 3 times with PBST. […] After the plate was washed 6 times with PBST, a TMB chromogenic substrate (KPL, 52-00-03) was added at 50 μL/well, and the plate was incubated at room temperature for 10-15 min. Then, 1 M H₂SO₄ was added at 50 μL/well to stop the reaction. The absorbance at 450 nm was read with a NOVOStar microplate reader, and the EC₅₀ values for the binding of the TSLP antibodies to TSLP were calculated.

Row | Binder | EC50 [nM]
1 | hu179-14 (antibody, human IgG1, kappa, V domains shown, IgG1-YTE, kappa) VH: EVQLVQSGAEVKKPGSSVKVSCKASGYAFSNYLIEWVRQAPGQGLEWIGVIDPGNGDTNYNENFKGRATLTADKSTSTAYMELSSLRSEDTAVYYCAREDNTGTAFDYWGQGTTVTVSS VL: DIVMTQSPDSLAVSLGERATINCKASQSVSSDVTWYQQKPGQSPKLLIYYVSNHYTGVPDRFSGSGSGTDFTFTISSLQAEDVAVYYCQQHHRFPLTFGQGTKLEIKR | 0.205
2 | hu179-21 (antibody, human IgG1, kappa, V domains shown, IgG1-YTE, kappa; also called hu179VH1-N55V + hu179VL2) VH: EVQLVQSGAEVKKPGSSVKVSCKASGGTFSNYLIEWVRQAPGQGLEWMGVIDPGVGDTNYNENFKGRVTITADKSTSTAYMELSSLRSEDTAVYYCAREDNTGTAFDYWGQGTTVTVSS VL: DIVMTQSPDSLAVSLGERATINCKASQSVSSDVTWYQQKPGQSPKLLIYYVSNHYTGVPDRFSGSGSGTDFTLTISSLQAEDVAVYYCQQHHRFPLTFGQGTKLEIKR | 0.978
3 | hu179-24 (antibody, human IgG1, kappa, V domains shown, IgG1-YTE, kappa) VH: EVQLVQSGAEVKKPGSSVKVSCKASGGTFSNYLIEWVRQAPGQGLEWMGVIDPGNGDTNYNENFKGRVTITADKSTSTAYMELSSLRSEDTAVYYCAREDNTGTAFDYWGQGTTVTVSS VL: DIVMTQSPDSLAVSLGERATINCKASQSVSSDVTWYQQKPGQSPKLLIYYVSNYYTGVPDRFSGSGSGTDFTLTISSLQAEDVAVYYCQQHHRFPLTFGQGTKLEIKR | 0.636
4 | hu179-15 (antibody, human IgG1, kappa, V domains shown, IgG1-YTE, kappa) VH: EVQLVQSGAEVKKPGSSVKVSCKASGYAFSNYLIEWVRQAPGQGLEWIGVIDPGNGDTNYNENFKGRATLTADKSTSTAYMELSSLRSEDTAVYYCAREDNTGTAFDYWGQGTTVTVSS VL: SIVMTQSPDSLAVSLGERATINCKASQSVSSDVTWYQQKPGQSPKLLIYYVSNHYTGVPDRFSGSGSGTDFTLTISSLQAEDVAVYYCQQHHRFPLTFGQGTKLEIKR | 0.203
5 | hu179-22 (antibody, human IgG1, kappa, V domains shown, IgG1-YTE, kappa; also called hu179VH1-G56V + hu179VL2) VH: EVQLVQSGAEVKKPGSSVKVSCKASGGTFSNYLIEWVRQAPGQGLEWMGVIDPGNVDTNYNENFKGRVTITADKSTSTAYMELSSLRSEDTAVYYCAREDNTGTAFDYWGQGTTVTVSS VL: DIVMTQSPDSLAVSLGERATINCKASQSVSSDVTWYQQKPGQSPKLLIYYVSNHYTGVPDRFSGSGSGTDFTLTISSLQAEDVAVYYCQQHHRFPLTFGQGTKLEIKR | 0.752
6 | hu179-20 (antibody, human IgG1, kappa, V domains shown, IgG1-YTE, kappa; also called hu179VH1-N55Q + hu179VL2) VH: EVQLVQSGAEVKKPGSSVKVSCKASGGTFSNYLIEWVRQAPGQGLEWMGVIDPGQGDTNYNENFKGRVTITADKSTSTAYMELSSLRSEDTAVYYCAREDNTGTAFDYWGQGTTVTVSS VL: DIVMTQSPDSLAVSLGERATINCKASQSVSSDVTWYQQKPGQSPKLLIYYVSNHYTGVPDRFSGSGSGTDFTLTISSLQAEDVAVYYCQQHHRFPLTFGQGTKLEIKR | 0.708
7 | hu179-23 (antibody, human IgG1, kappa, V domains shown, IgG1-YTE, kappa) VH: EVQLVQSGAEVKKPGSSVKVSCKASGGTFSNYLIEWVRQAPGQGLEWMGVIDPGNGDTNYNENFKGRVTITADKSTSTAYMELSSLRSEDTAVYYCAREDNTGTAFDYWGQGTTVTVSS VL: DIVMTQSPDSLAVSLGERATINCKASQSVSSDVTWYQQKPGQSPKLLIYYVSDHYTGVPDRFSGSGSGTDFTLTISSLQAEDVAVYYCQQHHRFPLTFGQGTKLEIKR | 0.997

Further lines, results first:

Row | EC50 [nM] | Binder
8 | 0.204 | hu179-29 (antibody, human IgG1, kappa, V domains shown, IgG1-YTE, kappa) VH: EVQLVQSGAEVKKPGSSVKVSCKASGYTFSNYLIEWVRQAPGQGLEWIGVIDPGNGDTNYNENFKGRATLTADKSTSTAYIELSSLRSEDTAVYYCAREDNTGTAFDYWGQGTTVTVSS VL: DIVMTQSPDSLAVSLGERATINCKASQSVSSDVTWYQQKPGQSPKLLIYYVSEHYTGVPDRFSGSGSGTDFTLTISSLQAEDVAVYYCQQHHRFPLTFGQGTKLEIKR
9 | 0.145 | hu179-32 (antibody, human IgG1, kappa, V domains shown, IgG1-YTE, kappa) VH: EVQLVQSGAEVKKPGSSVKVSCKASGYTFSNYLIEWVRQAPGQGLEWIGVIDPGNGDTNYNENFKGRATLTADKSTSTAYIELSSLRSEDTAVYYCAREDNTGTAFDYWGQGTTVTVSS VL: DIVMTQSPDSLAVSLGERATINCKASQSVSSDVTWYQQKPGQSPKLLIYYVSNHETGVPDRFSGSGSGTDFTLTISSLQAEDVAVYYCQQHHRFPLTFGQGTKLEIKR
10 | 0.201 | hu179-31 (antibody, human IgG1, kappa, V domains shown, IgG1-YTE, kappa) VH: EVQLVQSGAEVKKPGSSVKVSCKASGYTFSNYLIEWVRQAPGQGLEWIGVIDPGNGDTNYNENFKGRATLTADKSTSTAYIELSSLRSEDTAVYYCAREDNTGTAFDYWGQGTTVTVSS VL: DIVMTQSPDSLAVSLGERATINCKASQSVSSDVTWYQQKPGQSPKLLIYYVSNEYTGVPDRFSGSGSGTDFTLTISSLQAEDVAVYYCQQHHRFPLTFGQGTKLEIKR
11 | 0.18 | hu179-27 (antibody, human IgG1, kappa, V domains shown, IgG1-YTE, kappa) VH: EVQLVQSGAEVKKPGSSVKVSCKASGYTFSNYLIEWVRQAPGQGLEWIGVIDPGNGDTNYNENFKGRATLTADKSTSTAYIELSSLRSEDTAVYYCAREDNTGTAFDYWGQGTTVTVSS VL: DIVMTQSPDSLAVSLGERATINCKASQSVSSDVTWYQQKPGQSPKLLIYYVENHYTGVPDRFSGSGSGTDFTLTISSLQAEDVAVYYCQQHHRFPLTFGQGTKLEIKR
12 | 0.131 | hu179-25 (antibody, human IgG1, kappa, V domains shown, IgG1-YTE, kappa) VH: EVQLVQSGAEVKKPGSSVKVSCKASGYTFSNYLIEWVRQAPGQGLEWIGVIDPGNGDTNYNENFKGRATLTADKSTSTAYIELSSLRSEDTAVYYCAREDNTGTAFDYWGQGTTVTVSS VL: DIVMTQSPDSLAVSLGERATINCKASQSVSSDVTWYQQKPGQSPKLLIYEVSNHYTGVPDRFSGSGSGTDFTLTISSLQAEDVAVYYCQQHHRFPLTFGQGTKLEIKR
13 | 0.0906 | hu179-28 (antibody, human IgG1, kappa, V domains shown, IgG1-YTE, kappa) VH: EVQLVQSGAEVKKPGSSVKVSCKASGYTFSNYLIEWVRQAPGQGLEWIGVIDPGNGDTNYNENFKGRATLTADKSTSTAYIELSSLRSEDTAVYYCAREDNTGTAFDYWGQGTTVTVSS VL: DIVMTQSPDSLAVSLGERATINCKASQSVSSDVTWYQQKPGQSPKLLIYYVSQHYTGVPDRFSGSGSGTDFTLTISSLQAEDVAVYYCQQHHRFPLTFGQGTKLEIKR
14 | 0.201 | hu179-26 (antibody, human IgG1, kappa, V domains shown, IgG1-YTE, kappa) VH: EVQLVQSGAEVKKPGSSVKVSCKASGYTFSNYLIEWVRQAPGQGLEWIGVIDPGNGDTNYNENFKGRATLTADKSTSTAYIELSSLRSEDTAVYYCAREDNTGTAFDYWGQGTTVTVSS VL: DIVMTQSPDSLAVSLGERATINCKASQSVSSDVTWYQQKPGQSPKLLIYYVDNHYTGVPDRFSGSGSGTDFTLTISSLQAEDVAVYYCQQHHRFPLTFGQGTKLEIKR
15 | 0.246 | hu179-30 (antibody, human IgG1, kappa, V domains shown, IgG1-YTE, kappa) VH: EVQLVQSGAEVKKPGSSVKVSCKASGYTFSNYLIEWVRQAPGQGLEWIGVIDPGNGDTNYNENFKGRATLTADKSTSTAYIELSSLRSEDTAVYYCAREDNTGTAFDYWGQGTTVTVSS VL: DIVMTQSPDSLAVSLGERATINCKASQSVSSDVTWYQQKPGQSPKLLIYYVSNDYTGVPDRFSGSGSGTDFTLTISSLQAEDVAVYYCQQHHRFPLTFGQGTKLEIKR
